Results taken from PMC3530481.

Target: collagen VI tetramers from bovine cornea (bovine)
Experiment: ELISA; solid-phase binding: collagen VI tetramers coated (10 ug in 100 ul TBS, overnight 4 C), recombinant WARP dimer 0-1 uM in TBS, 1 h at room temperature, detected with sheep anti-WARP serum; Scatchard analysis, apparent Kd

Kd: 22 nM
B1: recombinant human WARP (von Willebrand factor A-domain related protein), dimer (natural protein)
chain: ERGPPASAPRGDLMFLLDSSASVSHYEFSRVREFVGQLVAPLPLGTGALRASLVHVGSRPYTEFPFGQHSSGEAAQDAVRASAQRMGDTHTGLALVYAKEQLFAEASGARPGVPKVLVWVTDGGSSDPVGPPMQELKDLGVTVFIVSTGRGNFLELSAAASAPAEKHLHFVDVDDLHIIVQELRGSILDAMRPQQLHATEITSSGFRLAWPPLLTADSGYYVLELVPSAQPGAARRQQLPGNATDWIWAGLDPDTDYDVALVPESNVRLLRPQILRVRTRPGEAGPGASGPESGAGPAPTQLAALPAPEEAGPERIVISHARPRSLRVSWAPALGSAAALGYHVQFGPLRGGEAQRVEVPAGRNCTTLQGLAPGTAYLVTVTAAFRSGRESALSAKACTPDGPRPRPRPVPRAPTPGTASREP
